No end group written: not given here.
Columns and labels:
[1] = target: kappa opioid receptor (KOR) (human, UniProt P41145 1-380); assay: cell-based or functional assay
[2] = target: T1, atypical chemokine receptor ACKR3 (formerly CXCR7) (human, UniProt P25106 1-362); assay: cell-based or functional assay
mu opioid receptor (MOR) = mu opioid receptor (MOR) (human, UniProt P35372 1-400); assay: cell-based or functional assay
[3] = target: delta opioid receptor (DOR) (human, UniProt P41143 1-372); assay: cell-based or functional assay
Sequence of delta opioid receptor (DOR) (P41143 whole entry, stated change not applied): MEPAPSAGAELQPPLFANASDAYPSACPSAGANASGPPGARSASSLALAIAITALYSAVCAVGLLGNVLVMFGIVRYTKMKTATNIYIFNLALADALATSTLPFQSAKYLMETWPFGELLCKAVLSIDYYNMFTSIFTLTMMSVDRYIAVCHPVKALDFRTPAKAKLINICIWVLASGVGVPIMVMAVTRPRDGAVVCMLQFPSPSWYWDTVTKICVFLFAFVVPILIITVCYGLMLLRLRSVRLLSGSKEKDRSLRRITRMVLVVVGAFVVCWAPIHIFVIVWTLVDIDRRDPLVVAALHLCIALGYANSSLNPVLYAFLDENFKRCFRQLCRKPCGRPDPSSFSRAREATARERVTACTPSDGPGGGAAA

[4] = target: T1, atypical chemokine receptor ACKR3 …; assay: flow cytometry on cells
[5] = target: T1, atypical chemokine receptor ACKR3 …; assay: cell-based or functional assay; remark: listed apart in the source
mouse ACKR3 = mouse ACKR3 (mouse, UniProt P56485 1-362); assay: cell-based or functional assay
Sequence of mouse ACKR3 (P56485 whole entry): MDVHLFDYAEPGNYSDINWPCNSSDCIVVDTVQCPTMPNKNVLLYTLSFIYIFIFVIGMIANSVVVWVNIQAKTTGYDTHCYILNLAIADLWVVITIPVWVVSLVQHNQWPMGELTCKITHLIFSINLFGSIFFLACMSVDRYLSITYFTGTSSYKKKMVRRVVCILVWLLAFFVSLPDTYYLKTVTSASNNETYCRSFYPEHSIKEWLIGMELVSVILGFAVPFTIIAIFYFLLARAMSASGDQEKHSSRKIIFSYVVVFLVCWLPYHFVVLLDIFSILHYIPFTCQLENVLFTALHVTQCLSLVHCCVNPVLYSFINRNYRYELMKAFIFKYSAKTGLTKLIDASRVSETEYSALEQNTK

[6] = target: T1, atypical chemokine receptor ACKR3 …; assay: flow cytometry on cells; remark: listed apart in the source
[7] = target: ACKR3 C-terminally tagged with SmBiT (human, UniProt P25106 1-362); assay: cell-based or functional assay
Sequence of ACKR3 C-terminally tagged with SmBiT (P25106 whole entry): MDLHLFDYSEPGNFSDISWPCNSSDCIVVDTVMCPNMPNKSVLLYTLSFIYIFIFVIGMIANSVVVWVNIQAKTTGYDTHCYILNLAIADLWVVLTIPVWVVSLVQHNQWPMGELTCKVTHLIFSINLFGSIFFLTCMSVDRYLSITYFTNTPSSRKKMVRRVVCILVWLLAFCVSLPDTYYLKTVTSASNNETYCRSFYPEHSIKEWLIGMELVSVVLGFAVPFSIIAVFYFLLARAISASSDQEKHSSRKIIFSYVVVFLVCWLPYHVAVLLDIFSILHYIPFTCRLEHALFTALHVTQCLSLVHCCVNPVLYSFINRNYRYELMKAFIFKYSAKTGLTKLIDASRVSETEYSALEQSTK

T1 sequence (P25106 whole entry): as above
Sequence of mu opioid receptor (MOR) (P35372 whole entry): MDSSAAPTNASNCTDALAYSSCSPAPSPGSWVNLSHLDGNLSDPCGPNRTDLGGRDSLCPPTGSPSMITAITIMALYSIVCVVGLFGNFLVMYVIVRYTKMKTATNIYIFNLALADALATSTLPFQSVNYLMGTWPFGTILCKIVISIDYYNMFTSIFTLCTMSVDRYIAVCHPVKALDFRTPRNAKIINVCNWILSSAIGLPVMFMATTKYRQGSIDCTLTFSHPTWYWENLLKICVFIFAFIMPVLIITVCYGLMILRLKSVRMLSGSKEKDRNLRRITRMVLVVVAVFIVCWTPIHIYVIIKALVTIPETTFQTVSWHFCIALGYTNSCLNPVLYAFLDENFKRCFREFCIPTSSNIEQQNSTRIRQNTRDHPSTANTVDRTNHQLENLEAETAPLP
Sequence of kappa opioid receptor (KOR) (P41145 whole entry): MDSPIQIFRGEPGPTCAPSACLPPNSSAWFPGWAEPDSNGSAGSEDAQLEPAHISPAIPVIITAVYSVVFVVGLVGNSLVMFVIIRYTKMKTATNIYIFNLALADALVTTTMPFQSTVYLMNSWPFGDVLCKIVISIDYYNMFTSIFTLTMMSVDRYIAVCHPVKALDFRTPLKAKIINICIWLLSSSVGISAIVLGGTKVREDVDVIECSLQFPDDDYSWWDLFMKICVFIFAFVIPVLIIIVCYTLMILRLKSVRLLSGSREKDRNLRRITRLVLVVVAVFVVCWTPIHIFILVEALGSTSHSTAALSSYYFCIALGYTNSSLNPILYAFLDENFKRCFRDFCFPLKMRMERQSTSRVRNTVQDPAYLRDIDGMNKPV

Row | Binder | IC50 [4] | Supplementary Table 9: EC50 of β-arrestin-1 recruitment to ACKR3, CHO cells [5] | Supplementary Table 9: EC50 of β-arrestin-1 recruitment to ACKR3, HEK cells [5] | Supplementary Table 9: EC50 of β-arrestin-2 recruitment to ACKR3, U87 cells [5] | further results
1 | YGGFMRRV-NH2 [Adrenorphin] | 41.2 nM | 22.5 nM | 72.6 nM | 81.5 nM | Supplementary Table 4: EC50 of β-arrestin-1 recruitment to KOR, U87 cells [1]: 65.6 nM; Supplementary Table 4: EC50 of β-arrestin-1 recruitment to ACKR3, U87 cells [2]: 109 nM; Supplementary Table 4: EC50 of β-arrestin-1 recruitment to MOR, U87 cells (mu opioid receptor (MOR)): 101 nM; Supplementary Table 4: EC50 of β-arrestin-1 recruitment to DOR, U87 cells [3]: 323 nM
2 | FGGFMRRK-NH2 | 4 nM | – | – | – | Supplementary Table 6: EC50 of β-arrestin-1 recruitment to mACKR3, U87 cells (mouse ACKR3): 2.31 nM
3 | YGGFLRRIRPKLKWDNQ [Dynorphin A] | 85.3 nM | – | 110 nM | 97.6 nM | –
4 | YGGFLRRQFKVVT [Dynorphin B] | ~1000 nM | ~1000 nM | 673 nM | 908 nM | –
5 | YGGFMRRVGRPEWWMDYQKRYG [BAM22] | 31.3 nM | 12.5 nM | 23.2 nM | 22.9 nM | –
6 | FGGFTGARKSARKLANQ [Nociceptin] | – | ~10000 nM | – | > 10000 nM | –
7 | FGGFTGARKSARK-NH2 [Nociceptin 1-13-NH2] | > 10000 nM | ~10000 nM | ~10000 nM | ~10000 nM | –
8 | FGGFTGARKSARK-NH2 (also: ψ(CH2-NH) bond between Phe1 and Gly2) [[Phe1Ψ(CH2-NH)-gly2]nociceptin-(1-13)-NH2] | > 10000 nM | ~5000 nM | 3760 nM | 4340 nM | –
9 | YPWF-NH2 [Endomorphin-1] | > 10000 nM | – | – | – | –
10 | FGGFMRRK(Cy5) [LIH383-Cy5] | – | – | – | – | EC50 [6]: 6.65 nM
11 | GGFLRRIRPKLKWDNQ [Dynorphin A 2-17] | ~10000 nM | – | – | – | –
12 | GGFLRRIRPKLK-NH2 [Dynorphin A 2-13-NH2] | > 10000 nM | – | – | – | –
13 | FGGFMRRK-NH2 (designed binder) | – | – | – | – | β-arrestin-1 recruitment (NanoBiT, U87 cells): EC50 [7]: 0.61 nM

From PMC7305236 (Nature Communications, 2020)
